Patent US20250134019A1, “TRIKETONE DIOXYGENASE VARIANTS FOR HERBICIDE TOLERANCE” (Monsanto Technology LLC, priority 2022, published 2025)

Key:
[1] = tested on: transgenic soybean plants; assay: Mesotrione injury of R0 transgenic soybean plants expressing TDO homologs; format: in vivo; details: promoter Constitutive 1, 3' UTR A; 210 g a.i./ha mesotrione at V3-V4, rated 7-14 days after treatment; mean of all tested events
Protocol: Plant expression vectors comprising the selected TDO homologs under the control of one of two constitutive promoters were transformed into soybean via an Agrobacterium tumefaciens-mediated method. Following Agrobacterium transformation, R0 transgenic soybean plants containing a single copy of the transgene were identified through molecular characterization and segregation analysis. Transgenic and wild-type (control) plants were grown in 6-inch pots filled with BM7 soilless mix in a growth chamber under the conditions of 28° C./23° C. (light/dark) and a 16 hr light/8 hr dark photoperiod. Plants were fertilized with 15-5-15 liquid fertilizer at the V3-V4 growth stage and treated with 210 g a.i./ha mesotrione (1X=105 g a.i./ha; Callisto®, Syngenta in 1% crop oil). Plants were visually rated 7-14 days after treatment on a scale of 0% to 100%, with 0%=no injury and 100%=plant death, relative to the wild-type controls. The results summarized in Table 2 represent the mean of all tested events (10-15) for each construct.

[2] = Specific activity of purified TDO proteins, second hydroxylation of mesotrione; format: biochemical; details: FIG. 8
Excerpt: Activity was expressed as nmol/min/mg protein and was the mean of three separate assays on the same enzyme sample (technical reps).
To test the hypothesis, the four amino acids of sorghum TDO corresponding to amino acid positions 230, 301, 332, and 335 in rice TDO were replaced with those of rice TDO. The corn, rice, sorghum, and the modified sorghum TDO genes were cloned into a pET28 vector for E. coli expression with His6 tag in the N-terminus. Subsequently, the proteins were expressed and purified by affinity chromatography. BL21-CodonPlus (DE3)-RIPL E. coli cells (Stratagene) were used for expression. Cells transformed with expression vector were grown in autoinduction media (AIM) supplemented with 100 μg mL-1 kanamycin and 34 μg mL-1 chloramphenicol.
TDO proteins used in this study were expressed in AIM cells using an auto-induction system as described by Studier (2014). Briefly, the recombinant cultures were grown at 37° C. for 3 hours and then 20° C. for one or two days. Cells were harvested by centrifugation and frozen at −80° C. The pellet was resuspended in lysis buffer (Bper and Yper [Pierce] with ratio 3 to 1, 25 mM Tris-HCl, 300 mM NaCl, 10 mM imidazole, pH 8.0). 150 mM ferric ammonium citrate (1000X) was added to the lysate to a final concentration of 150 µM and incubated on ice for 20 minutes. The lysate was centrifuged to clarify the supernatant. Clear supernatant was loaded onto a 5 mL Ni column connected to AKTA Express (GE Healthcare). […] Protein concentrations were determined spectrophotometrically based on their calculated molar absorption extinction coefficients at 280 nm.
TDO activity was measured by the second hydroxylation of mesotrione. For routine activity measurements of TDO and determining the kinetic properties of the second hydroxylation, the continuous change in A330, which is specific to the second hydroxylation and subsequent non-enzymatic water removal (i.e. the conversion of hydroxy-mesotrione to oxy-mesotrione), was monitored. […] The reaction proceeded until the maximum A330 was obtained (usually 20-120 minutes depending upon the concentration of mesotrione) and the linear portion of the curve was determined by visual inspection. […]
For the activity calculation, aliquots of the reaction were removed at various time points during the reaction and heated at 95° C. to halt the reaction. The reaction mixtures were analyzed by HPLC and mass spectrophotometry. By product conversation followed by peak integration on HPLC, a linear plot was obtained and the extinction co-efficient delta between the substrate (mesotrione) and the second product (oxy-mesotrione) was obtained according to the equation ΔA330=(εp-εs)*bΔp where ΔA330 is the change of absorbance at 330 nm and b is the light path.

[3] = tested on: transgenic soybean plants; assay: Field testing of variant D08 for mesotrione tolerance; format: in vivo; details: field setting, no control of temperature
Protocol: Since this testing was conducted in the field, there was no control on the temperature ranges the plants were exposed to.

[4] = tested on: transgenic soybean plants; assay: TDO protein level (ELISA) and mesotrione injury of transgenic soybean at normal vs elevated temperature; format: in vivo; details: elevated temperature (99° F.)
Protocol: Os.TDO-transgenic soybean plants and wild-type control plants were grown at 80° F. until V2 growth stage, then half of the plants were transferred to 99° F. After 3 days, leaf samples were harvested to determine TDO protein levels, and plants were then treated with 2X and 8X rates of mesotrione. Crop injury ratings were taken 11 days after mesotrione treatment. […] The black bars represent TDO protein levels in parts per million per dry weight; the gray bars represent plant injury rate (%) to 2X and 8X mesotrione treatments.
Soybeans were planted and grown under typical greenhouse conditions (85° F. day, 75° F. night) until approximately V3 growth stage. At that time, half of the plants were moved to a higher temperature growth chamber (99° F. day, 82° F. night; 60% relative humidity) for three days prior to leaf sample collection and a spray application of 4X rate mesotrione. Mesotrione was applied to both greenhouse and growth chamber plants. Visual injury ratings were taken at 7 days after treatment. […] The gray bars represent mesotrione injury ratings at 85° F. and the black bars represent mesotrione injury ratings at 99° F. for these transgenic plants.
The TDO variants were grown at 85° F. (gray) vs 99° F. (black). […]
The enzyme activity was measured at room temperature for the hydroxylation of mesotrione, and was defined as Kcat/Km, M-1 sec-1 (specificity constant). […]

[5] = tested on: transgenic cotton plants; assay: Mesotrione treatment of cotton plants expressing TDO variants, crop injury; format: in vivo; details: for Crop Injury (%), 210 g/ha (2X) Mesotrione / Crop Injury (%), 840 g/ha (8X) Mesotrione: R2 cotton sprayed at V3
Protocol: Cotton is a crop of interest that is often exposed to high temperature growing conditions and thus, selected TDO variants were tested in cotton. Three TDO variants, D08, TDO_6, and TDO_8 were transformed into cotton (along with the Os.TDO control) using similar expression elements in single-cassette vectors or as part of multi-cassette vectors. R2 transgenic cotton plants were then screened for tolerance to mesotrione. Sixteen plants from two events each per construct were sprayed with two rates (2X and 8X) of mesotrione at V3 stage under normal (80° F.) and hot (100° F.) growing conditions. In addition, the effect of heat treatment on TDO accumulation in cotton plants were measured by ELISA. Cotton plants were planted and grown under normal greenhouse conditions (80° F. day/70° F. night) until V3 growth stage. Half of the plants were then moved to a higher temperature growth chamber (100° F. day/82° F. night) for the heat treatment, whereas the remaining half of the plants stayed in the same greenhouse (80° F. day/70° F. night). At day 3 after the plants were placed under different temperature conditions, leaf samples were collected for TDO protein measurement. The plants in 100° F. growth chamber and in 80° F. greenhouse were both sprayed with 2X mesotrione (210 g a.i./ha). Leaf samples were collected again 7 days after mesotrione treatment (DAT: Days After Treatment) for protein assay. Table 5 compares protein levels of the TDO variants in transgenic cotton plants grown under the two tested conditions. The protein levels for the TDO variants were measured at three time points for plants: 1) just before entering the high temperature treatment, 2) three days following placement into control (normal growth temperature) or high temperature (100° F.), and 3) 7 days after a 2X mesotrione spray.

[6] = specific activity of second hydroxylation

B1: Sb.TDO: TDO homolog from Sorghum bicolor, SEQ ID NO:6 (protein)
chain: MAGESWKVPTPVKDLAALVEEPPSQFVQREEDRPGSLMLAADMPDPLPIVDLDKMSTADEATKLRSALQTWGLFLATNHGIDVSLMEDLMKASREFFNQPLQERQKYSNLREGTRFQLEGYGSDPVIAQDHILDWSDRLQLKVEPEDERNLAQWPKHPESFRDLLHEYATKTKTVMVKILRAMAKTLELDEEDFIDQIGGRPQAYARFNYYPPCPRPELVLGIKAHSDGPLLTVLLVDREVGGLQIQRENKWFNVPSIPHALVINLGDSLEIMSNGIFKSPVHRVVTNAEKERISLAMLYAVQRDNVLEPAPGLLDEKRPAKYRRITEAHFLEGVKEHFSKGMRMIETLKI
modifications: Sorghum bicolor
- % Injury [1]: 35%
- specific activity of the second hydroxylation ([2]; purified His6-tagged protein from E. coli): not significantly different from the blank

B2: SwM: Sb.TDO variant SwM, SEQ ID NO:48, substitutions P230T-A301S-L332R-V335I (protein)
chain: MAGESWKVPTPVKDLAALVEEPPSQFVQREEDRPGSLMLAADMPDPLPIVDLDKMSTADEATKLRSALQTWGLFLATNHGIDVSLMEDLMKASREFFNQPLQERQKYSNLREGTRFQLEGYGSDPVIAQDHILDWSDRLQLKVEPEDERNLAQWPKHPESFRDLLHEYATKTKTVMVKILRAMAKTLELDEEDFIDQIGGRPQAYARFNYYPPCPRPELVLGIKAHSDGTLLTVLLVDREVGGLQIQRENKWFNVPSIPHALVINLGDSLEIMSNGIFKSPVHRVVTNAEKERISLAMLYSVQRDNVLEPAPGLLDEKRPAKYRRITEAHFRAGIKEHFSKGMRMIETLKI
modifications: TDO variant sequence
- activity compared to the rice TDO protein [2, 6]: about 17%

B3: D08: Os.TDO variant D08, SEQ ID NO:18, 20 amino acid changes relative to Os.TDO (protein)
chain: MADESWRAPALVQELAAKGVEEPPSRYLLREQDRPDVKLVAAELPEPIPVVDLGRLDGAEEATKLRVALQNWGFFLLTNHGIEASLMDDVMNLSREFFNQPIERKQKFSNLIDGKHFQIEGYGTDRVVTQDQVLDWSDRLHLRVEPKEEQDLAFWPDHPESFRDVLHKYASGCKRIRDDIIQAMAKLLELDEDYFLDRFNEAPTFARFNYYPPCPRPDLVFGIRPHSDGGLLTILLVDKDVGGLQVQRDGKWSNVPATPHTLLINLGDTMEVMSNGIFKSPVHRVVTNAEKERISLAMLYSVNDEKDIEPAAGLLDENRPARYRKVSVEEFRAGIFGKFSRGERYIDSLRI
modifications: TDO variant sequence
- tolerance to mesotrione spray treatment [3]: good tolerance
- injury ratings after mesotrione application relative to Os.TDO control [4]: possibly trending lower injury relative to the Os.TDO control
- Crop Injury (%), 210 g/ha (2X) Mesotrione ([5]; Under 80° F.): 0%
- Crop Injury (%), 840 g/ha (8X) Mesotrione ([5]; Under 80° F.): 0%
- Crop Injury (%), 210 g/ha (2X) Mesotrione ([5]; Under 100° F.): 0%
- Crop Injury (%), 840 g/ha (8X) Mesotrione ([5]; Under 100° F.): 0%
- injury rates relative to Os.TDO controls ([5]; cotton at the higher temperature): trending even lower than the Os.TDO controls

B4: Zm.TDO: TDO homolog from Zea mays, SEQ ID NO:4 (protein)
chain: MADESWRVPTPVQELAATLEEPPSRYVLQEKDRRGSPLVADDMPEPLPVINLSRLSEDATEAAKLESALQSWGLVLVTNHGIETSLMDGVMDASREFFRQPLEEKQKYSNLIDGKRFQVEGYGNDRVATERQILNWNDRLHLKVAPEDERDYTHWPKHPESFRDVLHEYALETKRVRDGIFRATAKILELDEDHFVRLISDRAAAFARFNYYPPCPRPDLVNGVQPHSDAGVLTILLVDKDVRGLQVQRDGVWYNVPPMPYTLLINLGDIMEIMSNGILKSPVHRVVTNAEKERISLAVFYGVGAENALEPAAGLLDEKRPARYRKISMTDFIAGIHGQFSRGTRFIESLKI
modifications: Zea mays
- % Injury [1]: 15%
- activity lower than rice TDO [2, 6]: about 30%
